The values below come from patent US7662400.

For data set [1], the target named is protease-activated receptor 2 (PAR-2) on human eosinophils / BEAS-2B airway epithelial cells (UniProt P55085).
Data set [2] deals with T1, fluorescent quenched PAR-2 peptide substrate Abz-SKGRSLIGK(Dnp)D.
T1 sequence: SKGRSLIGK

protease-activated receptor 2 (PAR-2) on human eosinophils / BEAS-2B airway epithelial cells, sequence (P55085 whole entry, looked up): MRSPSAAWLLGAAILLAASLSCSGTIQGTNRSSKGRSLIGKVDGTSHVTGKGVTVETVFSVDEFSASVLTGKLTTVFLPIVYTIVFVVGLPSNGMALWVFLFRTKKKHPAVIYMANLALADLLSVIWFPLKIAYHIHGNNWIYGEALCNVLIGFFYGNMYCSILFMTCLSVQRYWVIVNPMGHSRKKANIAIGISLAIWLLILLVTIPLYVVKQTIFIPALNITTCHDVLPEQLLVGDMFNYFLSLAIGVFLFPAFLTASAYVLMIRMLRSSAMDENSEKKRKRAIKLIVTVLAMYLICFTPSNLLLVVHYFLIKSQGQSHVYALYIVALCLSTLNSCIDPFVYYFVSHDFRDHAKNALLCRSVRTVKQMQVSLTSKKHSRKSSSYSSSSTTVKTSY

For Aspergillus xylanase, the “deglycosylation and downregulation of PAR-2 in eosinophils (Western blot)” value in data set [1] is “The 41 kDa and 70 kDa PAR-2 molecules were deglycosylated by xylanase temporarily”.

For trypsin, the “in vitro assay for PAR-2 cleavage and activation (fluorescent quenched peptide substrate)” value in data set [2] is reported as “trypsin, as positive control, clearly cleaved this peptide”.
